Assay results: US20160347808A1 (IMMATICS BIOTECHNOLOGIES, published 2016)

Target: T1, HLA-A*02:01 (peptide-receptive MHC class I monomer from UV-ligand exchange) (human)
T1 construct: Monomers were captured on streptavidin-coated plates
Assay: UV-exchange ELISA (anti-b2m); exchange yield grade: + >=10%, ++ >=20%, +++ >=50%, ++++ >=75%
Excerpt: Candidate peptides for T cell based therapies according to the present invention were further tested for their MHC binding capacity (affinity). The individual peptide-MHC complexes were produced by UV-ligand exchange, where a UV-sensitive peptide is cleaved upon UV-irradiation, and exchanged with the peptide of interest as analyzed. Only peptide candidates that can effectively bind and stabilize the peptide-receptive MHC molecules prevent dissociation of the MHC complexes. To determine the yield of the exchange reaction, an ELISA was performed based on the detection of the light chain (β2m) of stabilized MHC complexes. The assay was performed as generally described in Rodenko et al. (Rodenko et al., 2006).
96 well MAXISorp plates (NUNC) were coated over night with 2 ug/ml streptavidin in PBS at room temperature, washed 4× and blocked for 1 h at 37° C. in 2% BSA containing blocking buffer. Refolded HLA-A*02:01/MLA-001 monomers served as standards, covering the range of 15-500 ng/ml. Peptide-MHC monomers of the UV-exchange reaction were diluted 100 fold in blocking buffer. Samples were incubated for 1 h at 37° C., washed four times, incubated with 2 ug/ml HRP conjugated anti-β2m for 1 h at 37° C., washed again and detected with TMB solution that is stopped with […]. Absorption was measured at 450 nm. Candidate peptides that show a high exchange yield (preferably higher than 50%, most preferred higher than 75%) are generally preferred for a generation and production of antibodies or fragments thereof, and/or T cell receptors or fragments thereof, as they show sufficient avidity to the MHC molecules and prevent dissociation of the MHC complexes.

peptide exchange yield [%] | Binder
20 to 50 | VLDEDEPRFL [peptide VLDEDEPRFL (SEQ ID NO 60)]
20 to 50 | KLYERCEVV [peptide KLYERCEVV (SEQ ID NO 47)]
50 to 75 | LLTDNVVKL [peptide LLTDNVVKL (SEQ ID NO 59)]
50 to 75 | VLDGVLMEL [peptide VLDGVLMEL (SEQ ID NO 24)]
50 to 75 | MISELEVRL [peptide MISELEVRL (SEQ ID NO 70)]
20 to 50 | SLAADQLLKL [peptide SLAADQLLKL (SEQ ID NO 79)]
20 to 50 | GMLNEAEGKAIKL [peptide GMLNEAEGKAIKL (SEQ ID NO 69)]
20 to 50 | ALDPELLLL [peptide ALDPELLLL (SEQ ID NO 78)]
20 to 50 | EMIENIQSV [peptide EMIENIQSV (SEQ ID NO 75)]
20 to 50 | VLFTDEGVPKFL [peptide VLFTDEGVPKFL (SEQ ID NO 56)]
≥ 75 | WLFDDGGLTL [peptide WLFDDGGLTL (SEQ ID NO 5)]
50 to 75 | ILLEKSVSV [peptide ILLEKSVSV (SEQ ID NO 34)]
20 to 50 | QVWEIQHTV [peptide QVWEIQHTV (SEQ ID NO 51)]
20 to 50 | KTLGKLWRL [peptide KTLGKLWRL (SEQ ID NO 64)]
50 to 75 | SLNDLEKDVMLL [peptide SLNDLEKDVMLL (SEQ ID NO 67)]
50 to 75 | SLESKLTSV [peptide SLESKLTSV (SEQ ID NO 44)]
≥ 75 | SILDDSFKL [peptide SILDDSFKL (SEQ ID NO 42)]
50 to 75 | FLDANGHFV [peptide FLDANGHFV (SEQ ID NO 23)]
50 to 75 | GLLESPSIFNFTA [peptide GLLESPSIFNFTA (SEQ ID NO 36)]
20 to 50 | ALLPRYFFL [peptide ALLPRYFFL (SEQ ID NO 2)]
50 to 75 | KLLKLFQGV [peptide KLLKLFQGV (SEQ ID NO 61)]
20 to 50 | LLADEDSSYL [peptide LLADEDSSYL (SEQ ID NO 27)]

peptide exchange yield [%] | Binder
20 to 50 | ALSNVIHKV [peptide ALSNVIHKV (SEQ ID NO 40)]
50 to 75 | YLMGFLHAV [peptide YLMGFLHAV (SEQ ID NO 74)]
20 to 50 | ILDDSFKLL [peptide ILDDSFKLL (SEQ ID NO 41)]
50 to 75 | SILQFVHMV [peptide SILQFVHMV (SEQ ID NO 68)]
50 to 75 | VLIDHRWVL [peptide VLIDHRWVL (SEQ ID NO 21)]
50 to 75 | RLAELTVDEFL [peptide RLAELTVDEFL (SEQ ID NO 4)]
50 to 75 | ALLNGEYLLAA [peptide ALLNGEYLLAA (SEQ ID NO 54)]
20 to 50 | TLDAAQPRV [peptide TLDAAQPRV (SEQ ID NO 43)]
50 to 75 | YLFDIAVSM [peptide YLFDIAVSM (SEQ ID NO 73)]
50 to 75 | YLLDYPNNLL [peptide YLLDYPNNLL (SEQ ID NO 72)]
50 to 75 | FLLGSEIKL [peptide FLLGSEIKL (SEQ ID NO 53)]
50 to 75 | QMLDVAIRV [peptide QMLDVAIRV (SEQ ID NO 29)]
20 to 50 | AMADKMDMSL [peptide AMADKMDMSL (SEQ ID NO 58)]
50 to 75 | ALAELLHGA [peptide ALAELLHGA (SEQ ID NO 45)]
10 to 20 | GLSSAYGGL [peptide GLSSAYGGL (SEQ ID NO 30)]
50 to 75 | RLYTKLLNEA [peptide RLYTKLLNEA (SEQ ID NO 19)]
50 to 75 | FLAELPGSLSL [peptide FLAELPGSLSL (SEQ ID NO 6)]
20 to 50 | GLDDGPDFL [peptide GLDDGPDFL (SEQ ID NO 66)]
50 to 75 | KLLDLTVRI [peptide KLLDLTVRI (SEQ ID NO 35)]
≥ 75 | RLIPDTLYSV [peptide RLIPDTLYSV (SEQ ID NO 3)]
50 to 75 | GLDDRYSLV [peptide GLDDRYSLV (SEQ ID NO 46)]
50 to 75 | GLFAGLGGAGA [peptide GLFAGLGGAGA (SEQ ID NO 37)]

peptide exchange yield [%] | Binder
20 to 50 | SLLKRDFGA [peptide SLLKRDFGA (SEQ ID NO 77)]
50 to 75 | LLYGKYVSV [peptide LLYGKYVSV (SEQ ID NO 31)]
≥ 75 | SLADRLIGV [peptide SLADRLIGV (SEQ ID NO 25)]
20 to 50 | KLNTETFGV [peptide KLNTETFGV (SEQ ID NO 32)]
20 to 50 | YLTRHLAVL [peptide YLTRHLAVL (SEQ ID NO 7)]
50 to 75 | TLMAEMHVV [peptide TLMAEMHVV (SEQ ID NO 50)]
50 to 75 | YLKDGDVML [peptide YLKDGDVML (SEQ ID NO 20)]
50 to 75 | NLLEKENYL [peptide NLLEKENYL (SEQ ID NO 57)]
≥ 75 | ALTEIQEFI [peptide ALTEIQEFI (SEQ ID NO 28)]
50 to 75 | GLIDEVMVL (also called CYP2W1-001) [peptide GLIDEVMVL (SEQ ID NO 22)]
50 to 75 | ALLSQQTHL [peptide ALLSQQTHL (SEQ ID NO 81)]
20 to 50 | YLAPENGYL [peptide YLAPENGYL (SEQ ID NO 62)]
20 to 50 | ALDSSNSMQTI [peptide ALDSSNSMQTI (SEQ ID NO 52)]
20 to 50 | FLDASDPAL [peptide FLDASDPAL (SEQ ID NO 48)]
50 to 75 | YLIGEKQHYL [peptide YLIGEKQHYL (SEQ ID NO 76)]
20 to 50 | SLAPTPVSA [peptide SLAPTPVSA (SEQ ID NO 38)]
20 to 50 | QVDEVVDIMRV [peptide QVDEVVDIMRV (SEQ ID NO 80)]
20 to 50 | GLASKENFSNVSL [peptide GLASKENFSNVSL (SEQ ID NO 26)]
20 to 50 | KLFSILSTV [peptide KLFSILSTV (SEQ ID NO 63)]
50 to 75 | RLWTEIPTAI [peptide RLWTEIPTAI (SEQ ID NO 71)]
50 to 75 | ALWEKNTHL [peptide ALWEKNTHL (SEQ ID NO 33)]
20 to 50 | QLYEEPDTKL [peptide QLYEEPDTKL (SEQ ID NO 82)]
